{
  "source": "the nanobody polyreactivity screen of Harvey et al. (2022)",
  "data": [
    {"test": "yeast display, Sf9 membrane polyspecificity reagent, FACS + sequencing; frameworks hold sequencing errors", "how_it_was_run": "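In a synthetic yeast display library (Saccharomyces cerevisiae BJ5465), nanobody expression was induced with galactose for 36–48 hours. FACS gates were set low and high (top ~1%) using anti-HA fluorescence for expression and streptavidin fluorescence for binding of the Sf9 membrane reagent. Each polyreactivity label is drawn from the gate of origin.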", "values": [
      {"sequence": "QVQLVESGGGLVQAGGSLRLSCAASGRTFYFYTKGWYRQAPGKERELVATAITSGGSTNYADSVKGRFTISRDNAKNTVYLQMNSLKPEDTAVYYCNARYTYLWSSLYYWGQGTQVTVSS", "polyreactivity (PSR sort gate)": "low polyreactivity"},
      {"sequence": "QVQLVESGGGLVQAGGSLRLSCAASGRTFYFYTLGWYRQAPGKERELVAAISWSGGSTYSADSVKGRFTISRDNAKNTVYLQLNSLKPEDTAVYYCAASSPWEQSNDQFYYWGQGTQVTVSS", "polyreactivity (PSR sort gate)": "low polyreactivity"},
      {"sequence": "QVQLVESGGGLVQAGGSLRLSCAASGRTFYGNAMGWYRQAPGTEREFVAAITRSGGTTYYADSVKGRFTISRDNAKNTVYLQMNSLKPEDTAVYYCARSYGWYRWAGYDYWGQGTQVTVSS", "polyreactivity (PSR sort gate)": "high polyreactivity"},
      {"sequence": "QVQLVESGGGLVQAGGSLRLSCAASGRTFYGNVMGWYRQAPGKEREWVAVISWSSGSTSYADSVKGRFTISRDNAKNTVYLQMNSLKPEDTAVYYCAGTTRPPRYRQYDSDYYYWGQGTQVTVSS", "polyreactivity (PSR sort gate)": "low polyreactivity"},
      {"sequence": "QVQLVESGGGLVQAGGSLRLSCAASGRTFYGYAMGWSRQAPGKERELVAAISVSGGGTYYADSVKGRFTISRDNAKYTVYLQMNSLKPEDTAVYYCAAAVYERPRDYYYWGQGTQVTVSS", "polyreactivity (PSR sort gate)": "low polyreactivity"},
      {"sequence": "QVQLVESGGGLVQAGGSLRLSCAASGRTFYGYAMGWYRQAPGKERELVAAISRRGGSTNYADSVKGRFTLSRDNAKNTVYLQMNSLKPEDTAVYYCNVAFRIPYRMDYWGQGTQVTVSS", "polyreactivity (PSR sort gate)": "high polyreactivity"},
      {"sequence": "QVQLVESGGGLVQAGGSLRLSCAASGRTFYGYAMGWYRQAPGKERELVAAISWTGGRTYYADSVKGRFTISRDNAKNTVYLQMNSLKPEDTAVYYCNARRRGDSGDGYIYGYWGQGTQVTVSS", "polyreactivity (PSR sort gate)": "high polyreactivity"},
      {"sequence": "QVQLVESGGGLVQAGGSLRLSCAASGRTFYGYAMGWYRQAPGKERELVASIDGGGRTYYADSVKGRFTISRDNAKNTVYLQMNSLKPEYNGVYYCAKRSYQYGYPDGYGYWGQGTQVTVSS", "polyreactivity (PSR sort gate)": "low polyreactivity"},
      {"sequence": "QVQLVESGGGLVQAGGSLRLSCAASGRTFYGYAMGWYRQAPGKERELVATISWSGGRTNYADSVKGRFTISRDNAKNTVYLQMNSLKPEDTAVYYCAAPYRLSKYDYWGQGTEVTVSS", "polyreactivity (PSR sort gate)": "high polyreactivity"},
      {"sequence": "QVQLVESGGGLVQAGGSLRLSCAASGRTFYGYAMGWYRQAPGKERELVATITSGGSTKYADSVKGRFTISRDNAKNTVYLQMNSLKPEDTAVYYCAARTGGHRGYDYWGQGTQVTVSS", "polyreactivity (PSR sort gate)": "low polyreactivity"},
      {"sequence": "QVQLVESGGGLVQAGGSLRLSCAASGRTFYGYGMGWYRQAPGKERELVAGISGRGTRTYYADSVKGRFTISRDNAKNTVYLQMNSLKPEDTAVYYCNAVSIGYYSQSLGLDYWGQGTQVTVSS", "polyreactivity (PSR sort gate)": "high polyreactivity"},
      {"sequence": "QVQLVESGGGLVQAGGSLRLSCAASGRTFYGYVMGWYRQAPGKERELVAAISRSVGSTYYADSVKGRFTISRDNAKNTVYLQMNSLKPEDTAVYYCATSVYGGVDYWGQGTQVTVSS", "polyreactivity (PSR sort gate)": "high polyreactivity"},
      {"sequence": "QVQLVESGGGLVQAGGSLRLSCAASGRTFYGYVMGWYRQAPGKERELVAAISSGGNTKYADSVKGRFTISRDNAKNTVYLQMNSLKPEDTAVYYCAAGSSVTPYRYYYWGQGTQVTVSS", "polyreactivity (PSR sort gate)": "high polyreactivity"},
      {"sequence": "QVQLVESGGGLVQAGGSLRLSCAASGRTFYHNAMGWYRQAPGKERELVAAITSSGGRTYYADSVKGRFTISRDNAKNTVYLQMNSLKPEDTAVYYCNARYLGGQVRYWYYNKYDYWGQGTQVTVSS", "polyreactivity (PSR sort gate)": "high polyreactivity"},
      {"sequence": "QVQLVESGGGLVQAGGSLRLSCAASGRTFYHYAMGWYRQAPGKERELVAGITGRGRSTYYADSVKGRFTISRDNAKNTVYLQMNSLKPEDTAVYYCAAARLYSGAASDYGYWGQGTQVTVSS", "polyreactivity (PSR sort gate)": "high polyreactivity"},
      {"sequence": "QVQLVESGGGLVQAGGSLRLSCAASGRTFYHYTMGWYRQAPGKARELVAAITSGGSTYYADSVKGRFTISRDYAKNTVYLQMNSLKPEDTAVYYCARVRPLYHFSRYDDCGQGTQVTVSS", "polyreactivity (PSR sort gate)": "high polyreactivity"},
      {"sequence": "QVQLVESGGGLVQAGGSLRLSCAASGRTFYINAMGWSRQAPGKERELVAAITWSGGRTYYADSVKGRFTISRDNAKNTVYLQMNSLKPEDTAVYYCAVGYVYTRKGRVQPVKYDYWGQGTQVTVSS", "polyreactivity (PSR sort gate)": "high polyreactivity"},
      {"sequence": "QVQLVESGGGLVQAGGSLRLSCAASGRTFYINAMGWYRQAPGKERELVATISRSGGDTYYADSVKGRFTISRDNAKNTVYLQMNSLKPEDTAVYYCYARQYYYRSGAYASRYLYNYWGQGTQVTVSS", "polyreactivity (PSR sort gate)": "high polyreactivity"},
      {"sequence": "QVQLVESGGGLVQAGGSLRLSCAASGRTFYINAMGWYRQAPRKERELVAAITSVGSTNYADSVKGRFTISRDNAKNNVYIQMNSLKPEDTAVYYCAAESTEGTSGDYDYWGQGTQVTVSS", "polyreactivity (PSR sort gate)": "low polyreactivity"},
      {"sequence": "QVQLVESGGGLVQAGGSLRLSCAASGRTFYIYAMGWYRQAPGKERELVAAINSGGSTYYADSVKGRFTISRDNAKNTVYLQMNSLKPEDTAVYYCAATKGYYFFGDRDYWGQGTQVTVSS", "polyreactivity (PSR sort gate)": "low polyreactivity"},
      {"sequence": "QVQLVESGGGLVQAGGSLRLSCAASGRTFYIYAMGWYRQAPGKERELVAAISWGSGSTYYADSVKGRFTISRDNAKNTVYLQMNSLKPEDTAVYYCAAEYAYPSEWTYDYWRQGTQVTVSS", "polyreactivity (PSR sort gate)": "low polyreactivity"},
      {"sequence": "QVQLVESGGGLVQAGGSLRLSCAASGRTFYIYAMGWYRQAPGKERELVAAITYGGGRTFYADSVKGRFTISRDYAKTTVYLQMISLKPEDTAVYYCAATDRGKRSTYDYWGQGTQVTVSS", "polyreactivity (PSR sort gate)": "high polyreactivity"},
      {"sequence": "QVQLVESGGGLVQAGGSLRLSCAASGRTFYIYAMGWYRQAPGKERELVASINWSTGRTYYADSVKGRFTISRDNAKNTVYLQMNSLKPEDTAVYYCATDGDYYYISQGRRGYRYNYWGQGTQVTVSS", "polyreactivity (PSR sort gate)": "high polyreactivity"},
      {"sequence": "QVQLVESGGGLVQAGGSLRLSCAASGRTFYIYARGWYRKAPGKERELVAAITYGGGRTFYADSVKGRFTISRDNAKYTVYLQMNSLKPEDNAVYYCAATVRGKRSTYDYWGQGTQVTVSS", "polyreactivity (PSR sort gate)": "high polyreactivity"},
      {"sequence": "QVQLVESGGGLVQAGGSLRLSCAASGRTFYIYTRGWYRQAPGKERELVAAISSSGDSTYYADSVKGRFTISRDNAKNTVYLQMNSLKPEDTAVYYCAAYPTYPDEYWGQGTQVTVSS", "polyreactivity (PSR sort gate)": "low polyreactivity"},
      {"sequence": "QVQLVESGGGLVQAGGSLRLSCAASGRTFYKNAIGWYRQAPGKERELVAAITATYYADSVKGRFTISRDNAKNTVYLQMNSLKPEDTAVYYCNAYLYPKQPLSPPYPTFEGGYCGQGTQVTVSS", "polyreactivity (PSR sort gate)": "low polyreactivity"},
      {"sequence": "QVQLVESGGGLVQAGGSLRLSCAASGRTFYKNAMGWYRQEPGTERELVAAISSRGGRTTYADSVKGRFTISRDNAKNTVYLQMISLKPEDTAVYYCAADWAQVYHGTPKYYYWGQGTQVTVSS", "polyreactivity (PSR sort gate)": "high polyreactivity"},
      {"sequence": "QVQLVESGGGLVQAGGSLRLSCAASGRTFYKYAMGWYRQAPAKESELVAAISTRGTNTYYADSVKGRFTISRDYAKNTVYLQMKSLKPEDTAVYYCAAVTASPYSHDYWGQGTQVTVSS", "polyreactivity (PSR sort gate)": "high polyreactivity"},
      {"sequence": "QVQLVESGGGLVQAGGSLRLSCAASGRTFYKYAMGWYRQAPGKERELVAVINWSGGRTYADSVKGRFTISRDNAKNTVYLQMNSLKPEDTAVYYCNAESYEFHRAWGDYDYWGQGTQVTVSS", "polyreactivity (PSR sort gate)": "low polyreactivity"},
      {"sequence": "QVQLVESGGGLVQAGGSLRLSCAASGRTFYKYAMGWYRQAPWKERELVAAISSDGTTYYADSVKGRFTISRDNAKNTVYLQMNSLKPEDTAVYYCAKDRKYADNDYWGQGTQVTVSS", "polyreactivity (PSR sort gate)": "low polyreactivity"},
      {"sequence": "QVQLVESGGGLVQAGGSLRLSCAASGRTFYLNAMGWYRQAPGKERELVATISYTGDTTYYADSVKGRFTISGDNALNTVYLQMNSLKPEDTAVYYCAALPSRPRGYDYWGQGTQVTVSS", "polyreactivity (PSR sort gate)": "high polyreactivity"},
      {"sequence": "QVQLVESGGGLVQAGGSLRLSCAASGRTFYLYAMGWYRPAPGKERELVAAITWRGGSTYYADSVKGRFTISRDNAKNTVYLQMNSLKPEDTAVYYCAAVTFFYYSAVRYEYYYWGQGTQVTVSS", "polyreactivity (PSR sort gate)": "high polyreactivity"},
      {"sequence": "QVQLVESGGGLVQAGGSLRLSCAASGRTFYLYAMGWYRQAPGKERELVAAITWRGGSTYYADSVKGRFTISRDNAKNTVYLQMNSLKPEDTAVYYCAAVTFFYYSAVRYEYYYWGQGTQVTVSS", "polyreactivity (PSR sort gate)": "high polyreactivity"},
      {"sequence": "QVQLVESGGGLVQAGGSLRLSCAASGRTFYLYAMGWYRQAPGKERELVADISWDGDSTYYADSVKGRFTISRDNAKNTVYLQMNSLKPEDTAVYYCAADYFYYYEQYLWYTYDYWGQGTQVTVSS", "polyreactivity (PSR sort gate)": "high polyreactivity"},
      {"sequence": "QVQLVESGGGLVQAGGSLRLSCAASGRTFYLYTMGSSRQAPGKERELVAAITGGGRTYYADSVKGRFTISRDNAKNTVYLQMNSLKPEDTAVYYCNADYAYYSYDYWGQGTQVTVSS", "polyreactivity (PSR sort gate)": "low polyreactivity"},
      {"sequence": "QVQLVESGGGLVQAGGSLRLSCAASGRTFYLYTMGWYRQAPGKVSELVATISDGGGGTYYADSVKGRFTISRDNAKNTVYLQMNRLKPEDTAVYYCSADPIDVRDVPIPHVDFDYWGQGTQVTVSS", "polyreactivity (PSR sort gate)": "low polyreactivity"},
      {"sequence": "QVQLVESGGGLVQAGGSLRLSCAASGRTFYLYTMGWYRQAPWKERELVAGISWSGGSTYADSVKGRFTLSRDNAKNTVYLQMNSLKPEDTAVYYFNADDVRGLFYYWGQGTQVTVSS", "polyreactivity (PSR sort gate)": "low polyreactivity"},
      {"sequence": "QVQLVESGGGLVQAGGSLRLSCAASGRTFYNAMGWYRPAPGKERELVAAITTGGGTKYADSVKGRCTISRDNAKNTVYLQMNSLKPEDTAVYYCNTDEWYHFYHGAHKYDYWGQGTQVTVSS", "polyreactivity (PSR sort gate)": "low polyreactivity"},
      {"sequence": "QVQLVESGGGLVQAGGSLRLSCAASGRTFYNAMGWYRQAPGKERELVAAISASGARTYYADSVKGRFTISRDNAKNTVYLQMNSLKPEDTAVYYCATKSQRYARDYWGQGTQVTVSS", "polyreactivity (PSR sort gate)": "high polyreactivity"},
      {"sequence": "QVQLVESGGGLVQAGGSLRLSCAASGRTFYNAMGWYRQAPGKERQLVAAITTGGGTKYADSVKGRFTISRDNAKNTVYLEMNSLKPEDTAVYYCNTDEWNHFYHGAHKYDYWGQGTQVTVSS", "polyreactivity (PSR sort gate)": "low polyreactivity"},
      {"sequence": "QVQLVESGGGLVQAGGSLRLSCAASGRTFYNNAMGWYRQAPGKERELVAAISQRTGRTYYADSVKGRFTISRDNAKNTVYLQMNSLKPEDTAVYYCNKVAYYSRRMDYWGQGTQVTVSS", "polyreactivity (PSR sort gate)": "high polyreactivity"},
      {"sequence": "QVQLVESGGGLVQAGGSLRLSCAASGRTFYNYAMGWYRQAPGKERELVAAITRGGSTYYADSVKGRFTISRDNAKNTVYLQMNSLKPEDTAVYYCNAVFPYEHEEYDYWGQGTQVTVSS", "polyreactivity (PSR sort gate)": "high polyreactivity"},
      {"sequence": "QVQLVESGGGLVQAGGSLRLSCAASGRTFYNYAMGWYRQAPGKERELVAAITRGGSTYYADSVKGRFTISRDNAQNTVYLQMNSLKPEDTAVYYCNAKYIKGRDWGQGTQVTVSS", "polyreactivity (PSR sort gate)": "high polyreactivity"}
    ]}
  ]
}
